Reference: publication doi:10.1101/2023.09.08.556349 (bioRxiv, 2023)

What was measured:
[1] = biological target: SARS-CoV-2 RBD-SD1 (Wu), S residues 319 to 591 (SARS-CoV-2 Wuhan-Hu-1, UniProt P0DTC2); test: ELISA
[2] = biological target: SARS-CoV-2 Spike S1-His Tag (HPLC-verified), NR-53798 (SARS-CoV-2 Wuhan-Hu-1, UniProt P0DTC2); test: ELISA

B1: 3548-RBD-15 (antibody, V domains shown)
VH: QVQLQESGPGLVKPSETLSLTCTVSGGSVSSYYWSWIRQPPGKGLEWIGYIYYSGSTNYNPSLKSRVTISVDTSKNQFSLKLSSVTAADTAVYYCAKGIYSSSSYWGDPWGQGTLVTVSS
VL: not shown
binding result [1]: binds
binding result [2]: binds

B2: 3548-S-2 (antibody, V domains shown)
VH: QVQLVESGPGLVKPSQTLSLTCTVSGGSISSGGYYWSWIRQHPGRGLERIGYIYYSGSTYYNPSLKSRVTISVDTSKDQFSLKLTSVTAADSAVYYCARGSRNDLRDFDYWGQGTLVTVSS
VL: QSVMTQPPSVSGAPGQRVTISCSGSSSNIGNNYVSWYQQLPGTAPKLLIYGNSNRSSRVPDRFSGSKSGTSASLAITGLQAEDEADYYCQSYNSSLSGLVVFGGGTQLTAL
binding result [1]: binds
